Among the data in the RNAGym collection of RNA variant scans (doi:10.7554/elife.90254) are self-cleavage values, retold here.

B1: LINE1-full (parent)
chain: UACGUAGGUGGUUUUCCCCUGAUAGUGCUAAGGGGGCCUGGAAGUUUGGACUGGGCAGAGCUCAACACAGCGUGGCAAAGUGGCUGUGGCUAGACUGCCUCUCUGGAUUCCUCGUCACUCAGCAGGGCAUCUCUGAGAGAAAUGCC

In this data set the parent is B1. As to the kind of experiment: self-cleavage, relative activity (ratio to wild type); higher = more cleavage; in vitro, sequencing; the parent is a self-cleaving ribozyme.
Take A65C A141G: the self-cleavage is 0.02.

For A65U U104A, the self-cleavage was found to be 0.14.

With A65U A77G, the self-cleavage worked out at 0.3.

With A69G A77U, the self-cleavage was found to be 0.58.

Consider A69G A77G, for which the self-cleavage is 0.6.

As for A69G A77C, the self-cleavage was found to be 0.61.

In the case of A67G A69C, the self-cleavage is 0.37.

In the case of A67G A69U, the self-cleavage amounted to 0.06.

Regarding A67C A140G, the self-cleavage stood at 0.06.

As for A69G A107U, the self-cleavage worked out at 0.

For the variant A67G U81A, the self-cleavage came to 0.63.

A64U A78G: the self-cleavage turned out to be 0.27.

As to A67G C98U, the self-cleavage stood at 0.06.

In the case of A69G G97U, the self-cleavage was 0.07.

In the case of A65G C113U, the self-cleavage stood at 0.04.

On to A67U A121U, for which the self-cleavage came to 0.12.

Consider A67C C118G, for which the self-cleavage amounted to 0.05.

Regarding A67C U109C, the self-cleavage amounted to 0.06.

Take A65G G105A: the self-cleavage was determined as 0.01.

For the variant A64U A77U, the self-cleavage was found to be 0.48.

A64U A77G: the self-cleavage is 0.75.

On to A65G C103U, for which the self-cleavage was found to be 0.06.

C66U A129G: the self-cleavage worked out at 0.01.

Regarding A65G A138U, the self-cleavage was determined as 0.08.

For C68U U104A, the self-cleavage turned out to be 0.03.

Regarding C66U A92G, the self-cleavage worked out at 0.02.

As to A65G U100G, the self-cleavage was found to be 0.

Turning to A65U G127U, the self-cleavage came out at 0.28.

For the variant A67G U108A, the self-cleavage worked out at 0.5.

As to A67G U108C, the self-cleavage stood at 0.6.

As for A65G A141G, the self-cleavage is 0.07.

For A67G G135A, the self-cleavage turned out to be 0.68.

In the case of A67U A78G, the self-cleavage is 0.08.

On to A65G G139A, for which the self-cleavage worked out at 0.06.

In the case of A64U A142U, the self-cleavage is 0.46.

Consider A64U A142G, for which the self-cleavage was determined as 0.47.

Consider A65C U81A, for which the self-cleavage is 0.02.

As to C68U U132C, the self-cleavage worked out at 0.25.

With A67G A138U, the self-cleavage is 0.56.

Consider A67G A138G, for which the self-cleavage is 0.67.

For the variant A65U U102A, the self-cleavage turned out to be 0.17.

A65U U102C: the self-cleavage was determined as 0.3.

In the case of C68G U134G, the self-cleavage was found to be 0.04.

A65C A140G: the self-cleavage was 0.05.

In the case of A69G A136C, the self-cleavage was 0.49.

As to A67U G72A, the self-cleavage is 0.13.

With A65G C128U, the self-cleavage came out at 0.05.

In the case of A67G U100A, the self-cleavage came to 0.06.

In the case of A67G G86A, the self-cleavage was 0.05.

A65U C133U: the self-cleavage stood at 0.16.

In the case of A67C A77G, the self-cleavage amounted to 0.22.

In the case of C66U U85G, the self-cleavage worked out at 0.03.

With A65G C123G, the self-cleavage was found to be 0.03.

On to A65G C123U, for which the self-cleavage was 0.04.

Regarding C66A A124U, the self-cleavage was 0.04.

For A65G U104C, the self-cleavage was 0.01.

For the variant C68U A69G, the self-cleavage amounted to 0.11.

As to A67G C103U, the self-cleavage came out at 0.25.

In the case of A65G U73C, the self-cleavage was found to be 0.06.

With A65G U73A, the self-cleavage was found to be 0.04.

As to A65U U73C, the self-cleavage came to 0.16.

Take A67G C99A: the self-cleavage worked out at 0.17.

Consider A65G A117U, for which the self-cleavage was 0.04.

For the variant A69G C90U, the self-cleavage was 0.07.

Take A69G C90A: the self-cleavage was found to be 0.

For C66U A77G, the self-cleavage stood at 0.07.

As to A65G C90A, the self-cleavage is 0.01.

For the variant A65G C90G, the self-cleavage was found to be 0.09.

Regarding A69G C146A, the self-cleavage is 0.77.

Consider A65G U143A, for which the self-cleavage worked out at 0.06.

On to A65G U143C, for which the self-cleavage worked out at 0.08.

Consider A64U U112C, for which the self-cleavage worked out at 0.44.

As to A67G G72A, the self-cleavage worked out at 0.21.

A65U C71U: the self-cleavage was 0.05.

Consider C68U A78U, for which the self-cleavage came to 0.37.

As for C68U U134A, the self-cleavage was found to be 0.18.

A67U A69G: the self-cleavage was 0.03.

On to A64U A121G, for which the self-cleavage is 0.49.

Regarding A64U A121U, the self-cleavage amounted to 0.53.

Consider C68U A136G, for which the self-cleavage came out at 0.36.

Turning to A67C A129G, the self-cleavage came to 0.

Take A67U G88A: the self-cleavage was determined as 0.03.

As for A64U U109A, the self-cleavage worked out at 0.49.

Regarding A65G C145G, the self-cleavage was 0.02.

With A65G G93A, the self-cleavage worked out at 0.02.

With A67G U143A, the self-cleavage is 0.42.

For A67G U143C, the self-cleavage was 0.57.

Turning to A64U U132G, the self-cleavage came out at 0.61.

As for A64U U132C, the self-cleavage amounted to 0.49.

Consider A69G C113A, for which the self-cleavage is 0.48.

As to A69G C113U, the self-cleavage was found to be 0.41.

On to A69G U81C, for which the self-cleavage was determined as 0.54.

Regarding A69G U81A, the self-cleavage was found to be 0.38.

Regarding A65U U132C, the self-cleavage was found to be 0.2.

A65U A78G: the self-cleavage stood at 0.16.

A65U A78U: the self-cleavage amounted to 0.2.

Regarding A67U A138G, the self-cleavage stood at 0.13.

Turning to A67U A138U, the self-cleavage came to 0.15.

With A67G A77G, the self-cleavage was found to be 0.91.

In the case of A65G U134C, the self-cleavage was 0.06.

For the variant A65G U134G, the self-cleavage is 0.03.

For the variant A67U U73A, the self-cleavage is 0.05.

Turning to A67G U73C, the self-cleavage was found to be 0.66.

Take A67G U73A: the self-cleavage came out at 0.24.

For A67G U104A, the self-cleavage worked out at 0.36.

As to A67U U134C, the self-cleavage was 0.16.

In the case of C66G U81A, the self-cleavage was 0.02.

On to A67G A140G, for which the self-cleavage was determined as 0.42.

As to A67U U81C, the self-cleavage was determined as 0.13.

As to A69C U134C, the self-cleavage was 0.03.

Consider A69G C128U, for which the self-cleavage came out at 0.63.

Consider A67U C131U, for which the self-cleavage came out at 0.08.

With A69G C84G, the self-cleavage was determined as 0.06.

For the variant A67G C110U, the self-cleavage worked out at 0.46.

As to A67G A121C, the self-cleavage amounted to 0.62.

Take A69G C145A: the self-cleavage worked out at 0.71.

Consider C68U U130C, for which the self-cleavage came out at 0.19.

For A67G C131G, the self-cleavage stood at 0.

Regarding A67G C131A, the self-cleavage amounted to 0.72.

For A69C A142C, the self-cleavage was 0.13.

With A69C A121G, the self-cleavage was found to be 0.11.

For A69C A121U, the self-cleavage worked out at 0.04.

In the case of A65G U112A, the self-cleavage came out at 0.04.

C68U A107G: the self-cleavage stood at 0.12.

In the case of C68U A107U, the self-cleavage was 0.19.

For A69C A141G, the self-cleavage was determined as 0.07.

For A65U A121G, the self-cleavage was 0.21.

As for A67C A69G, the self-cleavage stood at 0.

As for A64U A67G, the self-cleavage is 0.15.

As for A65U A138U, the self-cleavage came out at 0.16.

A65G G122U: the self-cleavage worked out at 0.07.

For the variant A65G U91A, the self-cleavage was determined as 0.02.

In the case of C68U A138G, the self-cleavage stood at 0.17.

Turning to A65U U109C, the self-cleavage amounted to 0.18.

Turning to A67G U134A, the self-cleavage was determined as 0.39.

With C68A G88A, the self-cleavage turned out to be 0.01.

For the variant A67G C101U, the self-cleavage was 0.75.

C66U A78G: the self-cleavage amounted to 0.04.

Take A67U U96C: the self-cleavage turned out to be 0.07.

Regarding A65G A129U, the self-cleavage turned out to be 0.02.

As for A65G A129G, the self-cleavage is 0.03.

Consider A65U U143A, for which the self-cleavage came to 0.06.

For A65U U143C, the self-cleavage was determined as 0.24.

With C66U U100A, the self-cleavage came out at 0.02.

On to A65G G135U, for which the self-cleavage came out at 0.14.

Take A67U U87A: the self-cleavage is 0.57.

Regarding C66U U73A, the self-cleavage turned out to be 0.03.

With A65U U112C, the self-cleavage turned out to be 0.26.

Regarding A69G C71U, the self-cleavage was determined as 0.1.

Take A65G U81C: the self-cleavage was 0.09.

As to C68U U143C, the self-cleavage was 0.22.

With A65U U96A, the self-cleavage was found to be 0.

Regarding A69G C76U, the self-cleavage is 0.69.

As to A65U U85C, the self-cleavage was determined as 0.06.

With A65U U85G, the self-cleavage was found to be 0.1.

Consider A65U C99U, for which the self-cleavage was found to be 0.1.

Consider A67U A117G, for which the self-cleavage was determined as 0.19.

For A64U G93U, the self-cleavage was 0.05.

Consider A67U U132C, for which the self-cleavage was determined as 0.16.

With A67U U132A, the self-cleavage was determined as 0.11.

Take A65G C71G: the self-cleavage was 0.05.

Regarding A69C U81C, the self-cleavage amounted to 0.

Regarding A64U A141G, the self-cleavage amounted to 0.32.

On to A67U U91A, for which the self-cleavage was determined as 0.08.

Consider A67U U91C, for which the self-cleavage worked out at 0.05.

Regarding A65U U134A, the self-cleavage turned out to be 0.13.

As to A65G A136G, the self-cleavage worked out at 0.07.
